From patent US20040210040A1 (PDL BIOPHARMA, published 2004)

T1: recombinant soluble human amphiregulin (human, UniProt P15514 101-198, limits assumed)
T1 sequence: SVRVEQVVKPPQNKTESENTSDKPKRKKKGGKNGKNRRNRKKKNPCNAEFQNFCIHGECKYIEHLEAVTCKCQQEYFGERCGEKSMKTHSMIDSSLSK


Experiments:
[1] = target: T1, recombinant soluble human amphiregulin; assay: cell-based or functional assay
[2] = target: T1, recombinant soluble human amphiregulin; assay: SPR (BIAcore 3000), antibody immobilized, AR as analyte
Protocol: (§1) Affinities between human amphiregulin (AR) and PAR34 or HuPAR34 were analyzed using BIAcore 3000 (BLAcore, Sweden).
(§2) The BIAcore analysis may be conducted according to the following protocol. PAR34 or HuPAR34 is immobilized on the Pioneer F1 chip using standard amine coupling kit (BIAcore). Surface plasmon resonance is measured at a flow rate of 50 μl/min at 24° C. Injection of AR (association phase) occurs over 180 seconds. Dissociation is subsequently monitored over 3 hours. Kinetics of binding (ka and kd) are calculated from data acquired at five different concentrations of analyte (320 nM, 160 nM, 80 nM, 40 nM, 20 nM), using the BIAevaluation program. Double-referencing is applied to eliminate responses from reference surface and buffer only control. The binding affinity, KD, is obtained by simultaneously fitting the association and dissociation phases of the sensorgram from the analyte concentration series.

[3] = target: T1, recombinant soluble human amphiregulin; assay: competition ELISA on coated recombinant soluble human amphiregulin, competitor against biotinylated PAR34, Exp. A
Protocol: (§3) The affinity of HuPAR34 to human amphiregulin was analyzed by competition ELISA. MaxiSorp ELISA plates (Nalge Nunc International) were coated overnight at 4° C. with 100 μl/well of 0.5 μg/ml recombinant soluble human amphiregulin in 0.2 M sodium carbonate-bicarbonate buffer, pH 9.4, washed with Wash Buffer (PBS containing 0.1% Tween 20), and blocked for 15 min at room temperature with 200 μl/well of SuperBlock Blocking Buffer in TBS (Pierce Chemical Company). After washing with Wash Buffer, a mixture of biotinylated PAR34 (0.125 μg/ml final concentration) and competitor antibody (PAR34 or HuPAR34 starting at 75 μg/ml final concentration and serially diluted 3-fold) in 100 μl/well of ELISA buffer was added in triplicate. As a control, 100 μl/well of 75 μg/ml of humanized anti-CD33 IgG1/κ monoclonal antibody HuM195 (Co, M. S. et al., J. Immunol., 148: 1149-1154 (1992)) in ELISA buffer was used. As a no-competitor control, 100 μl/well of ELISA Buffer was used. After incubating the plates for 1 hr and washing with Wash Buffer, bound antibodies were detected using 100 μl/well of 1 μg/ml HRP-conjugated streptavidin (Pierce Chemical Company) in ELISA buffer. After incubating for 0.5 hr at room temperature and washing with Wash Buffer, color development was performed by adding 100 μl/well of ABTS substrate (KPL, Inc.). […] Absorbance was read at 415 nm. […]

[4] = target: T1, recombinant soluble human amphiregulin; assay: competition ELISA on coated recombinant soluble human amphiregulin, competitor against biotinylated PAR34, Exp. B
Protocol: as §3

[5] = target: T1, recombinant soluble human amphiregulin; assay: competition ELISA on coated recombinant soluble human amphiregulin, competitor against biotinylated PAR34, Exp. C
Protocol: as §3

[6] = target: T1, recombinant soluble human amphiregulin; assay: competition ELISA on coated recombinant soluble human amphiregulin, competitor against biotinylated PAR34, Exp. D
Protocol: as §3

[7] = target: T1, recombinant soluble human amphiregulin; assay: competition ELISA on plate-coated recombinant soluble human amphiregulin; competes with biotinylated PAR34
Protocol: as §3

[8] = target: T1, recombinant soluble human amphiregulin; assay: competition ELISA on coated recombinant soluble human amphiregulin, competitor against biotinylated PAR34, average of Exp. A-D
Protocol: as §3

[9] = target: T1, recombinant soluble human amphiregulin; assay: SPR (BIAcore 3000)
Protocol: as §1, §2

[10] = target: T1, recombinant soluble human amphiregulin; assay: competition ELISA against biotinylated PAR34, Exp. A
Protocol: as §3

[11] = target: T1, recombinant soluble human amphiregulin; assay: competition ELISA against biotinylated PAR34, Exp. B
Protocol: as §3

[12] = target: T1, recombinant soluble human amphiregulin; assay: competition ELISA against biotinylated PAR34, Exp. C
Protocol: as §3

[13] = target: T1, recombinant soluble human amphiregulin; assay: competition ELISA against biotinylated PAR34, Exp. D
Protocol: as §3

[14] = target: T1, recombinant soluble human amphiregulin; assay: competition ELISA against biotinylated PAR34, average of Exp. A-D
Protocol: as §3

IC50 of inhibition of AR-mediated proliferation in 3T3 cells [1] [µg/mL]	Kd [2] [nM]	koff [2] [s⁻¹]	kon [2] [M⁻¹ s⁻¹]	IC50 [3] [µg/mL]	IC50 [4] [µg/mL]	IC50 [5] [µg/mL]	IC50 [6] [µg/mL]	IC50 (read off the curve) [7] [µg/mL]	IC50 [8] [µg/mL]	fold difference of affinity, HuPAR34 against PAR34 [9] [fold]	fold difference of IC50, HuPAR34 against PAR34 [10] [fold]	fold difference of IC50, HuPAR34 against PAR34 [11] [fold]	fold difference of IC50, HuPAR34 against PAR34 [12] [fold]	fold difference of IC50, HuPAR34 against PAR34 [13] [fold]	fold difference of IC50, HuPAR34 against PAR34 [14] [fold]	Binder
0.025	0.41	0.024	4.8e+07	0.82	0.78	1.3	1.39	~1	1.07							PAR34 (murine anti-amphiregulin monoclonal antibody) (antibody, mouse IgG2b, V domains shown) VH: EIQLQQSGPELVKPGASVKVSCKASGYAFTNYNMYWVKQSHGKSLEWIGYIDPYYGDPGYSQKFKGKATLTVDKSSSTAYMHLNSLTSEDSAVYYCARRGNFPYYFDYWGQGTTLTVSS VL: DIKMTQSPSSMYASLGERVTITCKASQDINSYLSWFQQKPGKSPKTLIYRANRLVDGVPSRFSGSGSGQDYSLTISSLEYEDMGIYYCLQYDEFPYTFGGGTKLEIK
0.055	0.53	0.00823	1.26e+07	1.95	1.11	1.76	2.76	~2	1.9	≤ 2	2.4	1.4	1.4	2	1.8	HuPAR34 (humanized PAR34, IgG1/kappa) (antibody, V domains shown) VH: EVQLVQSGAEVKKPGASVKISCKVSGYAFTNYNMYWVRQAPGKGLEWIGYIDPYYGDPGYSQKFKGKATLTVDKSTSTAYMELSSLRSEDTAVYYCARRGNFPYYFDYWGQGTLVTVSS VL: DIQMTQSPSSLSASVGDRVTITCKASQDINSYLSWFQQKPGKAPKTLIYRANRLVDGVPSRFSGSGSGQDYTLTISSLQPEDFATYYCLQYDEFPYTFGGGTKVEIK
